According to article PMC5766207:

Columns and labels:
σJ = biological target: T1, σJ (Mycobacterium tuberculosis, UniProt L0TCG5 1-312); experiment: EMSA
T1 sequence: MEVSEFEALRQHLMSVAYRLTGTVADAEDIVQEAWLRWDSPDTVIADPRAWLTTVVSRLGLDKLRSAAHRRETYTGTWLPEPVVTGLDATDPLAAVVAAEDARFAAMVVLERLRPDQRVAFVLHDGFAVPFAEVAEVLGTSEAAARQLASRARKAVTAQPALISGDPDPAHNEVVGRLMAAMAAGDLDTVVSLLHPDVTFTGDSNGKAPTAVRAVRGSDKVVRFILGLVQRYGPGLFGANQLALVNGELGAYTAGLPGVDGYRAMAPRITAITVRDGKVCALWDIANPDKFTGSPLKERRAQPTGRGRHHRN

σJSnoaL_2 = biological target: T2, σJSnoaL_2 (Mycobacterium tuberculosis, UniProt L0TCG5 162-312); experiment: EMSA
T2 sequence: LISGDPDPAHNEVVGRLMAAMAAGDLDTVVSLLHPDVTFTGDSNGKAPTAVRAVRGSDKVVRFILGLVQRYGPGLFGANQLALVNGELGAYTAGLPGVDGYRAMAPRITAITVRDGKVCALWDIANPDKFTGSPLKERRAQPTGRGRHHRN

B1: wt-sigIp (dsDNA)
DNA 1: GCTGTCACATTCGGCGGGGCTGTCTCGTCCTTGA
DNA 2: TCAAGGACGAGACAGCCCCGCCGAATGTGACAGC
With B1 the Kd (σJ) was 4.96 ± 0.94 µM and the binding result (σJSnoaL_2) was “no binding”.
